Measurements taken from article PMC10134200 (Cell Insight, 2023).

Target: GST-CaM (glutathione S-transferase-tagged calmodulin) (UniProt P0DP23 1-149)
Assay: pull-down

- binding result: binds
B1: His-P3CP (His-tagged TRPP3 C-terminal peptide I560-K660) (domain or fragment)
chain: INDTYSEVKEELAGQKDELQLSDLLKQGYNKTLLRLRLRKERVSDVQKVLQGGEQEIQFEDFTNTLRELGHAEHEITELTATFTKFDRDGNRILDEKEQEK
